Laboratory results as given in patent publication US20190309069A1 (SHANGHAI HENGRUI PHARMACEUTICAL, published 2019).
Changes are numbered by the printed parent chain.

B1: humanized antibody H005-2 (antibody, human IgG4 S228P, kappa, F234A L235A, name in Kabat numbering, V domains shown)
VH: EVQLVESGGGLVQPGGSLRLSCAASGFTFSSYMMSWVRQAPGKRLEWVATISGGGANTYYPDSVKGRFTISRDNAKNSLYLQMNSLRAEDTAVYYCARQLYYFDYWGQGTTVTVSS
VL: DIQMTQSPSSLSASVGDRVTITCLASQTIGTWLTWYQQKPGKAPKLLIYTATSLADGVPSRFSGSGSGTDFTLTISSLQPEDFATYYCQQVYSIPWTFGGGTKVEIKR
notes: Back-mutated variant of H005-1, IgG4 constant region
B2: humanized antibody H005-3 (antibody, human IgG4 S228P, kappa, F234A L235A, name in Kabat numbering, V domains shown)
VH: B1 VH with R44G
VL: B1 VL with A43S
notes: as for B1
B3: humanized antibody H005-4 (antibody, human IgG4 S228P, kappa, F234A L235A, name in Kabat numbering, V domains shown)
VH: B1 VH
VL: B1 VL with A43S
notes: as for B1

Assays:
[1] = target: T1, PD-1 His protein (Beijing Sino Biological Inc.) (UniProt Q15116 25-167, limits assumed); experiment: Biacore SPR as in Example 5, PD-1 His as analyte
T1 construct: Bought reagent, analyte in the Biacore assay; not shown: His tag
Method: According to the instruction of a kit provided by Biacore, the test PD-1 antibody of the present invention was covalently linked to CM5 (GE) chip using a standard amino coupling method. Then a series of gradient concentrations of PD-1 His protein (Beijing Sino Biological Inc.), which were diluted in the same buffer, were loaded into each cycle successively. After that, the samples were regenerated with regenerated reagent in the kit. The antigen-antibody binding kinetics was tracked for 3 minutes and the dissociation kinetics was tracked for 10 minutes. The data obtained was analyzed by GE's BIAevaluation software using 1:1 (Langmuir) binding model.
(§1) Humanized antibodies were subjected to ELISA binding assay (method is the same as that of Example 2), ligand binding blocking assay (method is the same as that of Example 2), and affinity kinetics experiment (method is the same as that of Example 5) in vitro.

[2] = target: T2, recombinant PD-1 extracellular domain Fc fusion protein (PD-1 Fc) (human, biotin label (sites not given) in the ELISA binding assay; unlabelled when coated in the ligand blocking assay); experiment: ELISA as in Example 2, biotinylated PD-1 Fc captured on avidin
T2 construct: also called human PD-1Fc; human PD-1
Method: The PD-1 antibody blocks signaling pathway of PD-1 and its ligand by binding to PD-1 extracellular domain. In vitro ELISA assay is used to detect the binding property of the PD-1 antibody. Biotinylated PD-1 extracellular domain FC fusion protein (PD-1 FC) is coated onto 96-well plates by binding to neutralization avidin. Signal intensity after the addition of the antibody is used to determine the binding property of the antibody and PD-1.
Neutralization avidin (binding to biotin) was diluted to 1 μl/ml with PBS buffer, pipetted into a 96-well plate with at 100 μl/well and standed for 16 h-20 h at 4° C. The 96-well plate was washed once with PBST (PH7.4 PBS, containing 0.05% tweeen20) after PBS buffer was removed, then the plate was incubated and blocked for 1 h at room temperature with addition of 120 μl/well PBST/1% milk. After removal of the blocking solution, the plate was washed with PBST buffer, followed by addition of 1 μg/ml biotin-labeled PD1-FC which was diluted by PBST/1% milk, and incubated for 1 h at room temperature. After removal of the blocking solution, the plate was washed with PBST buffer for 3 times, followed by addition of the test PD-1 antibody which was diluted to a suitable concentration by PBST/1% milk, and incubated for 1.5 h at room temperature. After removal of reaction system, the plate was washed for 3 times with PBST buffer, followed by addition of 100 μl/well HRP-labeled anti-murine secondary antibody (The Jackson Laboratory) which was diluted by PBST/1% milk, and incubated for 1 h at room temperature. After being washed with PBST for three times, the plate was added with 100 μl/well TMB, and incubated for 5-10 min at room temperature. Then the reaction was terminated with addition of 100μ/well 1M H₂SO₄. The absorbance value at 450 nm was read on NOVOStar microplate reader; the ELISA binding EC₅₀ value was calculated.
as §1

[3] = target: T2, recombinant PD-1 extracellular domain …; experiment: ligand binding blocking ELISA as in Example 2, competitor biotin-labeled PD-L1
Method: In this experiment, a 96-well plate was coated with a PD-1 protein with the extracellular domain fused with FC (PD-1-FC), and incubated with the test PD-1 antibody; later biotin-labeled PD-L1 was added for incubation. After washing the plate, the binding amount of biotin-labeled PD-L1 was detected; the blocking IC₅₀ value of PD-1 antibody for ligand PD-L1 binding was calculated.
PD-1-FC was diluted to 1 μg/ml with PH 9.6 CB buffer (1.59 g Na₂CO₃ and 2.93 g NaHCO₃ were dissolved in 1 L of distilled water), pipetted into a 96-well plate at 100 μl/well and standed for 16 h-20 h at 4° C. The 96-well plate was washed once with PBST (PH7.4 PBS, containing 0.05% tweeen20) after PBS buffer was removed, then the plate was incubated and blocked for 1 h at room temperature with 120 μl/well PBST/1% milk. After removal of the blocking solution, the plate was washed with PBST buffer once, followed by addition of 90 μl of test PD-1 antibody which was diluted to a suitable concentration with sample diluents (PH7.4 PBS containing 5% BSA, 0.05% Tween20), and incubated for 1 h at 4° C. Then 10× concentrations of biotin-labeled PD-L1 (Beijing Sino Biological Inc.) (10 μg/ml) was added to the plate at 10 μl/well, oscillated and mixed by an oscillator, and incubated at 37° C. for 1 h. After removal of the reaction system, the plate was washed for 6 times with PBST buffer, followed by addition of 100 ul/well Streptavidin-Peroxidase Polymer which was diluted by PBST at a ratio of 1:400, and incubated under oscillation for 50 min at room temperature. After being washed with PBST for 6 times, the plate was added with 100 μl/well TMB, and incubated for 5-10 min at room temperature. Then the reaction was terminated with addition of 100 μl/well 1M H₂SO₄. The absorbance value at 450 nm was read on the NOVOStar microplate reader; the blocking IC₅₀ value of PD-1 for ligand PD-L1 binding was calculated.
as §1

Row | Binder | Kd [1] [nM] | EC50 [2] [nM] | IC50 [3] [nM]
1 | B1 | 2.98 | 0.14 | 1.27
2 | B2 | 2.45 | 0.15 | 1.33
3 | B3 | 3.89 | 0.14 | 1.36
